# In US20230131339A1, “EPI-X4 BASED PEPTIDES AND DERIVATIVES THEREOF” (Universitaet Ulm, priority 2020, published 2023):
# Several values for one entry are separate records, joined by “and”; a condition that tells them apart may be missing. Equal entries are not always repeated. Where a SMILES comes first, the peptide text is derived from it. Where no end group is shown, it is not given here. Side-chain parts run from the residue outwards. [ ]: non-standard residue; d: D form. The star is where a group is joined. Stearoyl = CCCCCCCCCCCCCCCCCC(=O)*; Palmitoyl = CCCCCCCCCCCCCCCC(=O)*; Glu = glutamate linker
# T1: CXC chemokine receptor type 4 (CXCR4) (human, UniProt P61073 1-352)
# T1 chain: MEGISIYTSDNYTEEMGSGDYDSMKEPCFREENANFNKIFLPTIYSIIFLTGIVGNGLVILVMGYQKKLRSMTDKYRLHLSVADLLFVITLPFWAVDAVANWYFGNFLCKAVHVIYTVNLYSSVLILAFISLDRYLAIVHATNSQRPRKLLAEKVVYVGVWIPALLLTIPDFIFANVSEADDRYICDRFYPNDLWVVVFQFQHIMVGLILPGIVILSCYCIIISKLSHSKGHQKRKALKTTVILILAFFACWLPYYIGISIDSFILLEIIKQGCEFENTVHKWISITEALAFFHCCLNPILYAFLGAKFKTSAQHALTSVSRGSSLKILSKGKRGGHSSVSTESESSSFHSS
# Experiments:
# [1] = system: CXCL12 induced Ca2+-signalling; assay: Ca++ signaling in BCR-ABL-transformed murine bone marrow cells; format: cell-based; details: 1 μM
# Description: Fifth, it was shown that the peptide derivatives inhibit calcium-signaling. CXCL12 stimulation of CXCR4 expressing B-cells leads to a strong calcium-release. In the presence of CXCR4 antagonists this response is reduced.
# For calcium measurement, 1×10^6 BCR-ABL-transformed murine bone marrow cells were incubated with 5 μg/mL of Indo-1 (Molecular Probes) and 0.5 μg/mL of pluronic F-127 (Molecular Probes) in Iscove's medium supplemented with 1% FCS (Pan Biotech) at 37° C. for 45 min. Cells were then washed by centrifugation and the cell pellets were resuspended in Iscove's medium with 1% FCS and treated with the EPI-X4 derivatives (1 μM or 0.5 μM) for 10 minutes at room temperature. Cells were pre-warmed for 5 minutes at 37° C. Calcium flux was assessed by FACS measurement at BD LSR Fortessa. After 30 seconds of baseline recording, CXCR4-dependent calcium signaling was determined by stimulating with 100 ng/ml of mouse SDF-1a (PeproTech).
# [2] = mice, i.v. tail vein
# Description: Peptides were injected into the tail vein of mice. 4 hours post injection, mice were sacrificed and blood taken by heart punctation. Plasma was obtained by centrifugation and tested for remaining activity in antibody competition assay. As control, peptide was spiked into native plasma (ex vivo). IC50 values were determined by non-linear regression assuming 1.8 ml in vivo blood volume. Remaining activity was determined by IC50 (ex vivo)/IC50 (in vivo)×100. The tested peptides included JM #143 (SEQ ID NO.: 54), JM #144 (SEQ ID NO.: 55), JM #192 (SEQ ID NO.: 89), JM #180 (SEQ ID NO.: 77), JM #194 (SEQ ID NO.: 91), JM #235 (SEQ ID NO.: 130), JM #198 (SEQ ID NO.: 95), JM #255 (SEQ ID NO.: 150), JM #257 (SEQ ID NO.: 152) and JM #204 (SEQ ID NO.: 99). […] Shown are data from 2 individual mice measured in duplicates.
# In vivo stability assay. 100 μl of a 700 μg/ml stock solution of the peptide in 0.9% NaCl was intravenously injected in the tail vein of C57BL/6NCrl (BL6) mice. 4 hours post injection, mice were killed by cervical dislocation. Mouse plasma was obtained by heart punctation. Blood was 19:1 diluted with 0.16 M NaEDTA and centrifuged at 2000×g for 20 min at 4° C. to obtain plasma. Plasma was stored at −80° C. till remaining peptide activity in the plasma was determined by 12G5 antibody competition assay.
# [3] = system: CXCR4-tropic X4-HIV-1 (NL4-3); format: cell-based; details: for IC50: CXCR4-tropic X4- (NL4-3)
# Description: The activity of the peptides was estimated by different assays.
# The X4-HIV inhibition assay is designed to measure the activity of the inventive peptides by their efficiency of blocking the infection of tissue culture cells by CXCR4-tropic HIV-1 variants.
# HIV-1 inhibition assay. […] For infection of TZM-bl cells in presence of inhibitors, cells were seeded at a density of 1×10^5 cells/ml in 70 μl DMEM containing 2.5% FCS. Compounds were diluted in PBS and 10 μl were added. After 15 minutes of incubation cells were inoculated with 20 μl of diluted virus. Infection rates were determined three days later using Gal-Screen system (Applied Biosystems).
# [4] = system: CXCL12 induced migration of T-cells; assay: Migration assay (transwell, Jurkat cells); format: cell-based
# Description: For each peptide, three independent experiments were performed. The error bars refer to the standard deviation.
# Migration assay. Migration assays were performed using 96-well transwell assay plates (Corning Incorporated, Kennebunk, Me., USA) with 5 μm polycarbonate filters. […] Next, 75 μL (0.5×10^5 cells) of Jurkat cells (in assay buffer), together with/without the compounds, were added into the upper chambers. After 4 h at 37° C. (5% CO2), 100 μL of the lower chambers were transferred to a fresh 96 V-well plate and analyzed with Cell-Titer-Glo® assay (Promega, Madison, Wis., USA). The percentage of migrated cells was calculated as described by Balabanian et al. (2005). In order to obtain the relative migration in %, the percentage of migrated cells were normalized to the CXCL12-only control.
# [5] = system: CXCL12-induced AKT signaling; assay: ERK/AKT signaling assay in SupT1 cells: AKT phosphorylation; format: cell-based
# Description: (§1) Third, the activity of the claimed EPI-X4 derivatives was tested by the effect on CXCL12/CXCR4-mediated ERK (Extracellular-signal Regulated Kinases) and AKT (a serine/threonine-protein kinase) signaling (FIG. 3). In that assay CXCR4 expressing cells are stimulated with the CXCR4 chemokine-ligand CXCL12, which subsequently leads to phosphorylation of ERK and AKT. Preincubation of cells with CXCR4-antagonists blocks those pathways. […] Two or three independent experiments were carried out in triplicates for each peptide in each assay. The error bars refer to the standard deviation.
# (§2) ERK/AKT signaling assay. CXCL12 induced ERK and AKT phosphorylation was determined in SupT1 cells. For this, 100,000 cells were seeded per well in a 96-V well plate in 100 μl medium supplemented with 1% FCS. Cells were incubated for 2 hours at 37° C. before 5 μl of compounds were added. After 15 min incubation at 37° C. cells were stimulated by adding 5 μl CXCL12 diluted in PBS to reach a final concentration of 100 ng/ml. Cells were further incubated for 2 min before the reaction was stopped by adding 20 μl of 10% PFA. Cells were fixed for 15 min at 4° C. before PFA was removed and cells permeabilized by adding 100 μl ice cold methanol. After 15 min at 4° C. the methanol was removed, cells were washed and 30 μl primary antibody was added (phospho-p44/42 MAPK (Erk1) (Tyr204)/(Erk2) (Tyr187) (D1H6G) mouse mAb #5726; phosphor-Akt (Ser473) (193H12) rabbit mAb #4058 Cell Signaling) for 1 hour at 4° C. After the antibody was removed and cells were washed secondary antibody was added for 30 min. Cells were washed afterwards and subsequently analyzed by flow cytometry.
# [6] = system: CXCL12-induced ERK signaling; assay: ERK/AKT signaling assay in SupT1 cells: ERK phosphorylation; format: cell-based
# Description: as §1, §2
# [7] = biological target: T2, CXC chemokine receptor type 4 (CXCR4) (human, UniProt P61073 1-352); assay: cell-based or functional assay
# [8] = biological target: T2, CXC chemokine receptor type 4 (CXCR4); assay: antibody competition assay
# Description: Antibody competition assay. Competition of compounds with antibody binding was performed on SupT1 cells. For that cells were washed in PBS containing 1% FCS and 50,000 cells were then seeded per well in a 96 V-well plate. Buffer was removed and plates were precooled at 4° C. […] The antibody was used at a concentration closed to its determined Kd. 15 μl compounds were then added to the cells and 15 μl antibody immediately afterwards. Plates were incubated at 4° C. in the dark for 2 hours. Afterwards cells were washed twice with PBS containing 1% FCS and fixed with 2% PFA. Antibody binding was analyzed by flow cytometry (FACS CytoFLEX; Beckman Coulter®).
# [9] = biological target: T1, CXC chemokine receptor type 4 (CXCR4); assay: competition
# [10] = biological target: T1, CXC chemokine receptor type 4 (CXCR4); assay: competition
# [11] = biological target: T1, CXC chemokine receptor type 4 (CXCR4); assay: 12G5 antibody competition
molecule,measurement,setting,value
"CCCCCCCCCCCCCCCC(=O)NCCCC[C@H](NC(=O)[C@H](CCCNC(=N)N)NC(=O)[C@H](CO)NC(=O)[C@H](Cc1c[nH]c2ccccc12)NC(=O)[C@H](CCCNC(=N)N)NC(=O)[C@H](CC(C)C)NC(=O)[C@@H](N)[C@@H](C)CC)C(=O)N[C@@H](CC(C)C)C(=O)N1CCC[C@H]1C(=O)N[C@@H](CS)C(=O)N[C@H](C(=O)N[C@@H](CO)C(=O)O)C(C)C [JM #144, ILRWSRK(Pal)LPCVS]",reduction of CXCL12 induced calcium-signaling,[1],almost completely blocked calcium-signaling
same,remaining activity in plasma in vivo 4 hours post injection,[2]; 4 hours post injection,27%
"CCCCCCCCCCCCCCCC(=O)N[C@@H](CCC(=O)O)C(=O)NCCCC[C@H](NC(=O)[C@H](CCCNC(=N)N)NC(=O)[C@H](CO)NC(=O)[C@H](Cc1c[nH]c2ccccc12)NC(=O)[C@H](CCCNC(=N)N)NC(=O)[C@H](CCSC)NC(=O)[C@H](N)CC(C)C)C(N)=O [JM #194, d-LMRWSRK(Glu-Pal)-NH2] (H-[dL]MRWSRK([Glu-Palmitoyl])-NH2; N-terminus assumed)",anti-HIV-1 activity (in words),[3],strongly increased anti-HIV-1 activity
same,IC50,[3],2 nM
same,reduction of CXCL12 induced calcium-signaling,[1],almost completely blocked calcium-signaling
same,inhibition of CXCL12 induced migration of T-cells (in words),[4],high activity
same,remaining activity in plasma in vivo 8 hours post injection,[2]; 8 hours post injection,about 9%
"CCCCCCCCCCCCCCCC(=O)NCCCC[C@H](NC(=O)[C@H](CCCNC(=N)N)NC(=O)[C@H](CO)NC(=O)[C@H](Cc1c[nH]c2ccccc12)NC(=O)[C@H](CCCNC(=N)N)NC(=O)[C@H](CC(C)C)NC(=O)[C@@H](N)[C@@H](C)CC)C(N)=O [JM #170, ILRWSRK(Pal)-NH2] (H-ILRWSRK(Palmitoyl)-NH2)",reduction of CXCL12 induced calcium-signaling,[1],almost completely blocked calcium-signaling
"CCCCCCCCCCCCCCCC(=O)N[C@@H](CCC(=O)NCCCC[C@H](NC(=O)[C@H](CCCNC(=N)N)NC(=O)[C@H](CO)NC(=O)[C@H](Cc1c[nH]c2ccccc12)NC(=O)[C@H](CCCNC(=N)N)NC(=O)[C@H](CC(C)C)NC(=O)[C@@H](N)[C@@H](C)CC)C(=O)N[C@@H](CC(C)C)C(=O)N1CCC[C@H]1C(=O)N[C@@H](CS)C(=O)N[C@H](C(=O)N[C@@H](CO)C(=O)O)C(C)C)C(=O)O [JM #143, ILRWSRK(Glu-Pal)LPCVS]",IC50,[3],5 nM
same,fold increase of anti-HIV-1 potency compared to WSC02,[3]; compared to WSC02,more than 60 fold
same,reduction of CXCL12-induced AKT signaling,[5]; 0.1 μM,20-25%
same,reduction of CXCL12-induced AKT signaling,[5]; 1 μM,~70%
same,reduction of CXCL12-induced ERK signaling,[6]; 0.1 μM,20-25%
same,reduction of CXCL12-induced ERK signaling,[6]; 1 μM,~70%
same,reduction of CXCL12 induced calcium-signaling,[1],almost completely blocked calcium-signaling
same,inhibition of CXCL12 induced migration of T-cells (in words),[4],strongly increased antagonistic effect in CXCL12 induced cell migration
ILRWSRK([Glu-Stearoyl])LPSVS (derived from JM#198 by replacing the cysteine at position 10 by a serine; also called ILRWSRK(Glu-Ste)LPSVS) [SEQ ID NO.: 164],"IC50, HIV inhibition assay",[7],> 150 nM
same,IC50,[8],< 25 nM
ILRWSRK-NH2 [JM#118],"IC50, HIV inhibition assay",[7],> 150 nM
same,IC50,[9],181 nM
same,IC50,[10],224 nM
[dM]LRWSRK([Glu-Palmitoyl])-NH2 [JM#196],"IC50, HIV inhibition assay",[7],> 150 nM
same,IC50,[8],< 25 nM
same,IC50,[11],31 nM
ILRWSRK([Glu-Palmitoyl])LPCVS [JM#143],IC50,[9],204 nM
same,IC50,[10],176 nM
ILRWSRK(Palmitoyl)LPCVS [JM#144],"IC50, X4-HIV-1 inhibition assay",[7],< 5 nM
same,IC50,[9],125 nM
same,IC50,[10],87 nM
[dM]LRWSRKK-NH2 (not fully specified (residue 8)) [JM#197],"IC50, HIV inhibition assay",[7],> 150 nM
same,IC50,[8],< 25 nM
[dL]MRWSRKK-NH2 (not fully specified (residue 8)) [JM#195],"IC50, HIV inhibition assay",[7],50 nM to 150 nM (2×) and > 150 nM
same,IC50,[8],< 25 nM
ILRWSRKLPCVS (not fully specified (residue 7)) [JM#198],"IC50, HIV inhibition assay",[7],> 150 nM
same,IC50,[8],< 25 nM
